Laboratory results reported in PMC4279225 (Molecular Biology of the Cell, 2015).
One block for each binder: values may come before it.

Key:
[1] = target: the molecule itself; test: SEC
[2] = target: T1, GST-Orc6, wild type (Drosophila, UniProt Q9Y1B2 1-257); test: pull-down
T1 sequence (looked up): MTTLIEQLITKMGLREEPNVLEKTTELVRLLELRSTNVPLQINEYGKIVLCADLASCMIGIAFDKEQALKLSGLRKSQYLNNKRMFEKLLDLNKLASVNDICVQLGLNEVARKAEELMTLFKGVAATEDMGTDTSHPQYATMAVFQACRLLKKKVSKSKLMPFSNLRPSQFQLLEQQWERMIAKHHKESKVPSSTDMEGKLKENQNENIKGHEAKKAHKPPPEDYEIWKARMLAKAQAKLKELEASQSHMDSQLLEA

[3] = target: T2, His-GFP-Orc6, wild type (Drosophila, UniProt Q9Y1B2 1-257); test: fluorescence polarisation
T2 sequence (looked up): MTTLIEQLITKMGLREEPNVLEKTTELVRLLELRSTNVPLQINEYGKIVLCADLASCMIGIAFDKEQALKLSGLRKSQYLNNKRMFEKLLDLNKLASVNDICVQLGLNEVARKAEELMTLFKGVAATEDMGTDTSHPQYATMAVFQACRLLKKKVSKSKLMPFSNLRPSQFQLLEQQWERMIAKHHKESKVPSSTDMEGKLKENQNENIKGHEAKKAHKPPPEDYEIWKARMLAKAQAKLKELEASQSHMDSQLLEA

[4] = target: T3, Recombinant wild-type septin complex Pnut-Sep2-Sep1 (His tag removed) (Drosophila melanogaster, UniProt P40797 1-539; P54359 1-419; P42207 1-361); test: negative-stain EM with Ni-NTA Nanogold labelling
T3 sequence (looked up) 1: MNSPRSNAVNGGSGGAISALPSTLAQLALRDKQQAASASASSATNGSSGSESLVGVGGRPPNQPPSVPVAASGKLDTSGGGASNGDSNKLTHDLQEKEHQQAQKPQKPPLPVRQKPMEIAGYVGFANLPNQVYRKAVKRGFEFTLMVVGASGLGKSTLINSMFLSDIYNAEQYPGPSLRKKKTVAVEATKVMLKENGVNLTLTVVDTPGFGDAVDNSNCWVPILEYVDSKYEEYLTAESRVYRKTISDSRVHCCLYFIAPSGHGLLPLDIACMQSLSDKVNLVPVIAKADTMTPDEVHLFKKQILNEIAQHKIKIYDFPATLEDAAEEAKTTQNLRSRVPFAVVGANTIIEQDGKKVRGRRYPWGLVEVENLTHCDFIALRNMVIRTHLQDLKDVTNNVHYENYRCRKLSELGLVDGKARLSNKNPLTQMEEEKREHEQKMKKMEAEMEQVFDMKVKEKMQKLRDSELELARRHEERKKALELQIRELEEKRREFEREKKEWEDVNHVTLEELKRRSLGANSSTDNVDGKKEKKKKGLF
T3 sequence (looked up) 2: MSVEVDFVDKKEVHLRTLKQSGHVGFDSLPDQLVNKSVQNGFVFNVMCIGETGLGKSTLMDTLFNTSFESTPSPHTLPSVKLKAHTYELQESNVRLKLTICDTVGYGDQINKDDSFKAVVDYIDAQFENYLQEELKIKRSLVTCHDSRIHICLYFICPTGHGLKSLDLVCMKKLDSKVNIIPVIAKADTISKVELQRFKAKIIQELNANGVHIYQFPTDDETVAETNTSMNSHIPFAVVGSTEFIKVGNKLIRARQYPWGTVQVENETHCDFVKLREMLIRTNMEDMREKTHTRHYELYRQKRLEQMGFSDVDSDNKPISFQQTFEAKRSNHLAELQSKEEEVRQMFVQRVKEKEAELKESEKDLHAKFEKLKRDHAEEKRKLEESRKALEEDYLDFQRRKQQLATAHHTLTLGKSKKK
T3 sequence (looked up) 3: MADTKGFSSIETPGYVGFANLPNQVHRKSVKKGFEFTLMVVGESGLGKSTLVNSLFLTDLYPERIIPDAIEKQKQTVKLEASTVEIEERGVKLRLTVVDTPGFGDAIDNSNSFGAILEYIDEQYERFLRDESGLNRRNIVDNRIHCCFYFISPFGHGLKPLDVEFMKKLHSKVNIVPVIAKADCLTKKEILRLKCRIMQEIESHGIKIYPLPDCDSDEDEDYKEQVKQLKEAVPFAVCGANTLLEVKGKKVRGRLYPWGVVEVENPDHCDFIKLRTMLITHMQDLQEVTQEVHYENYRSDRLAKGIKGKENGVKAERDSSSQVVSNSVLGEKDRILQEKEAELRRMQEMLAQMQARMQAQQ

binding result [2]: binds
binding result [3]: binds
B1: His-Orc6 Δ(200–257), Orc6 with truncated C-terminus (domain or fragment, Drosophila, UniProt Q9Y1B2 1-199, looked up)
chain: MTTLIEQLITKMGLREEPNVLEKTTELVRLLELRSTNVPLQINEYGKIVLCADLASCMIGIAFDKEQALKLSGLRKSQYLNNKRMFEKLLDLNKLASVNDICVQLGLNEVARKAEELMTLFKGVAATEDMGTDTSHPQYATMAVFQACRLLKKKVSKSKLMPFSNLRPSQFQLLEQQWERMIAKHHKESKVPSSTDMEG
binding result [1]: binds

binding result [4]: binds
B2: His-Orc6 Δ(1–186), N-terminus deletion (domain or fragment, Drosophila, UniProt Q9Y1B2 187-257, looked up)
chain: KESKVPSSTDMEGKLKENQNENIKGHEAKKAHKPPPEDYEIWKARMLAKAQAKLKELEASQSHMDSQLLEA

stoichiometry N [4]: 2.26 ± 0.34 Nanogold particles (His-Orc6 molecules) per septin hexamer
B3: His-Orc6, wild type, Orc6-wt (1–257) (natural protein, Drosophila, UniProt Q9Y1B2 1-257, looked up)
chain: MTTLIEQLITKMGLREEPNVLEKTTELVRLLELRSTNVPLQINEYGKIVLCADLASCMIGIAFDKEQALKLSGLRKSQYLNNKRMFEKLLDLNKLASVNDICVQLGLNEVARKAEELMTLFKGVAATEDMGTDTSHPQYATMAVFQACRLLKKKVSKSKLMPFSNLRPSQFQLLEQQWERMIAKHHKESKVPSSTDMEGKLKENQNENIKGHEAKKAHKPPPEDYEIWKARMLAKAQAKLKELEASQSHMDSQLLEA
stoichiometry N [1]: 2
